US20200157194A1 (Regeneron, published 2020)
Where “and” joins values, the source holds several entries; their conditions need not be identical. Equal values may be shown once. Read-outs that look alike come from different tables or passages of the source.

Assays:
Assay in all cases: cell-based or functional assay
[1] = biological target: recombinant human BMP4 (hBMP4; R&D, #314-BP/CF) (human)
[2] = biological target: recombinant human BMP4 (hBMP4; R&D, #314-BP/CF) (human); remark: listed apart in the source
[3] = biological target: recombinant human BMP4 (hBMP4; R&D, #314-BP/CF) (human); remark: listed apart in the source

Sequence of recombinant human BMP4 (hBMP4; R&D, #314-BP/CF) (human) (P12644 293-408): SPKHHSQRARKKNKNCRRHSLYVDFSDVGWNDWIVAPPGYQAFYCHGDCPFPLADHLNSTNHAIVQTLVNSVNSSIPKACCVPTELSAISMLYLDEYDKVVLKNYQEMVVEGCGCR

B1: recombinant human GREM1 (hGREM1-His; C-terminal 10His tagged, R&D, #5190-GR) (ligand)
chain: KKKGSQGAIPPPDKAQHNDSEQTQSPQQPGSRNRGRGQGRGTAMPGEEVLESSQEALHVTERKYLKRDWCKTQPLKQTIHEEGCNSRTIINRFCYGQCNSFYIPRHIRKEEGSFQSCSFCKPKKFTTMMVTLNCPELQPPTKKKRVTRVKQCRCISIDLDHHHHHHHHHH
With B1 the “hGrem1-His IC50 (nM), inhibition of 100 pM hBMP4, W-20-17/BRE-luc luciferase” value [1] was 6 nM and 4.3 nM and 4.2 nM and 5.4 nM, the “hGrem1-His IC50 (nM), inhibition of 200 pM hBMP4, W-20-17/BRE-luc luciferase” value [1] was 10.3 nM and the “hGrem1-His IC50 (nM), inhibition of 100 pM hBMP4, W-20-17/BRE-luc luciferase” value [2] was 2.9 nM. The “hGREM1-His, IC50 (M); W-20-17 cell differentiation assay (alkaline phosphatase)” value [3] was 4.4e-09 M.
